Columns and labels:
Assay type in all cases: biochemical, Thauera aromatica
purified protein [1] = substrate: NC(=O)c1ccc[n+]([C@@H]2O[C@H](COP(=O)(O)OP(=O)(O)OC[C@H]3O[C@@H](n4cnc5c(N)ncnc54)[C@H](O)[C@@H]3O)[C@@H](O)[C@H]2O)c1; test: purified protein; conditions: oxidation, co-substrate not given, standard assay pH 9.0, 40 °C, pH 9.0, varied: cofactor
purified protein [2] = substrate: NC(=O)c1ccc[n+]([C@@H]2C[C@H](COP(=O)(O)OP(=O)(O)OC[C@H]3O[C@@H](n4cnc5c(N)ncnc54)[C@H](O)[C@@H]3O)[C@@H](O)[C@H]2O)c1; test: purified protein; conditions: oxidation, co-substrate not given, standard assay pH 9.0, 40 °C, pH 9.0, varied: cofactor
purified protein [3] = substrate: NC(=O)C1=CN([C@@H]2O[C@H](COP(=O)(O)OP(=O)(O)OC[C@H]3O[C@@H](n4cnc5c(N)ncnc54)[C@H](O)[C@@H]3O)[C@@H](O)[C@H]2O)C=CC1; test: purified protein; conditions: reduction, co-substrate not given, standard assay pH 6.5, 40 °C, pH 6.5, varied: cofactor
purified protein [4] = substrate: CC1=CC(O)CCC1; test: purified protein; conditions: oxidation, standard assay: NAD+ 1 mmol L^−1, 100 mmol L^−1 HEPES pH 9.0, 40 °C, pH 9.0
[5] = substrate: O=C1CCCCC1=O; test: Michaelis-Menten kinetics, reduction; photometric standard assay or FDH-coupled biotransformation; conditions: NADH 0.25 mmol L^−1, 100 mmol L^−1 potassium phosphate pH 6.5, room temperature, solubility limit reached
From the text: (§1) Michaelis-Menten kinetics, reduction; photometric standard assay or FDH-coupled biotransformation on ThaADH

[6] = substrate: O=C1CCCCC1Cl; test: as above; conditions: NADH 0.25 mmol L^−1, potassium phosphate pH 6.5, room temperature, 1 % (v/v) DMSO, racemic substrate
From the text: as §1

[7] = substrate: O=C1CCCCC1Br; test: as above; conditions: NADH 0.25 mmol L^−1, potassium phosphate pH 6.5, room temperature, 3 % (v/v) DMSO, racemic substrate
From the text: as §1

B1: ThaADH (Thauera aromatica) (protein)
chain: MSSNPHRWMMTSPGAPMVRAEFEIGELSADQVVVAVAGCGVCHTDLGYYYDSVRTNHALPLALGHEISGRVVQAGANAAQWLGRAVIVPAVMPCGTCELCTSGHGTICRDQVMPGNDIQGGFASHVVVPARGLCPVDEARLAAAGLQLADVSVVADAVTTPYQAVLQAGVEPGDVAVVIGVGGVGGYAVQIANAFGASVVAIDVDPAKLEMMSKHGAALTLNAREISGRDLKKAIEAHAKANGLRLTRWKIFECSGTGAGQTSAYGLLTHGATLAVVGFTMDKVEVRLSNLMAFHARALGNWGCLPEYYPAALDLVLDKKIDLASFIERHPLDQIGEVFAAAHAHKLTRRAILTP
notes: full-length WT, recombinant in E. coli BL21(DE3), pET22b; C-terminal Strep-tag for all kinetics, N-terminal His-tag for crystals; about 40 kDa monomer, dimer in solution (89 kDa by SEC; tetramer and higher in blue native PAGE), two zinc per monomer
Km (purified protein [1]): 1.0 ± 0.2 mM
Vmax (purified protein [1]): 2.2 µmol/min/mg
kcat (purified protein [1]): 1.63 ± 0.1 s⁻¹
kcat/Km (purified protein [1]): 1630 ± 430 M⁻¹ s⁻¹
Km (purified protein [2]): 0.7 ± 0.1 mM
Vmax (purified protein [2]): 0.9 µmol/min/mg
kcat (purified protein [2]): 0.66 ± 0.04 s⁻¹
kcat/Km (purified protein [2]): 940 ± 190 M⁻¹ s⁻¹
Km (purified protein [3]): 0.07 ± 0.02 mM
Vmax (purified protein [3]): 9.1 µmol/min/mg
kcat (purified protein [3]): 6.63 ± 0.74 s⁻¹
kcat/Km (purified protein [3]): 94700 ± 37600 M⁻¹ s⁻¹
Km (purified protein [4]): 21.6 ± 1.9 mM
Vmax (purified protein [4]): 2.4 µmol/min/mg
kcat (purified protein [4]): 1.77 ± 0.05 s⁻¹
kcat/Km (purified protein [4]): 80 ± 10 M⁻¹ s⁻¹
Km [5]: 68.1 ± 33.8 mM
Vmax [5]: 53.3 µmol/min/mg
kcat [5]: 39.1 ± 10.1 s⁻¹
kcat/Km [5]: 570 ± 430 M⁻¹ s⁻¹
Km [6]: 33.1 ± 10.4 mM
Vmax [6]: 14.9 µmol/min/mg
kcat [6]: 10.9 ± 1.38 s⁻¹
kcat/Km [6]: 330 ± 150 M⁻¹ s⁻¹
Km [7]: 24.1 ± 6.8 mM
Vmax [7]: 6.3 µmol/min/mg
kcat [7]: 4.62 ± 0.47 s⁻¹
kcat/Km [7]: 190 ± 70 M⁻¹ s⁻¹
